Columns and labels:
Conditions in all cases: both partners purified
[1] = target: Puumala virus (PUUV) Gc ectodomain, residues 659–1105 (Puumala orthohantavirus, GPC of GenBank …, UniProt Q9WJ31); assay: crystal structure
[2] = target: T1, Puumala virus (Gn−Gc)4 glycoprotein spike on virus-like particles (Puumala orthohantavirus, strain …, UniProt P27312); assay: cryo-EM structure
T1 construct: copies: 4 + 4

[3] = target: T2, Puumala virus Gc as displayed on virus-like particles (Puumala orthohantavirus); assay: cryo-EM structure
T2 chain: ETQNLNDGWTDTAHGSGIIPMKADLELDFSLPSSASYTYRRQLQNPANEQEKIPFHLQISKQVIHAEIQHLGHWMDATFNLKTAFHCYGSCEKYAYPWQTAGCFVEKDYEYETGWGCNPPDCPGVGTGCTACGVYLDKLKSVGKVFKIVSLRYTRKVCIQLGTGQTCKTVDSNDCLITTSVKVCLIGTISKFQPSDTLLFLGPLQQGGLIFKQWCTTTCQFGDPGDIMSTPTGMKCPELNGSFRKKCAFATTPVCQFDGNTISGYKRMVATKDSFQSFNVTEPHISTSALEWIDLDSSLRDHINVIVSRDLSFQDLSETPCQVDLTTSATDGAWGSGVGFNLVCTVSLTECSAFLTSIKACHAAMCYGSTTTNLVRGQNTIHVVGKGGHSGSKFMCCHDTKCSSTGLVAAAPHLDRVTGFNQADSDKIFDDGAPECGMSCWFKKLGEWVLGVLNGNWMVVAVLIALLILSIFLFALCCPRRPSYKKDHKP

Measured: binding result

B1: Fab P-4G2 (antigen-binding fragment of mAb P-4G2) (Fab, V domains shown)
VH: QVQMKESGGGLVQPGKSLKLSCAASGFTFSDFWMSWVRQPSGKGLEWVARINTNGDTTHYTDDMKGRFTISRDNAKTTLYLEMSPLKSEDTAMYYCTRDRLGPFDYWGQGTTVTVSS
VL: DIVMTQSPAFPPVSLGDTVTITCQASQSVYKNLAWYQQKPGKSPRLLIFGMSSLADGVPSRFSASGSDKQYSLKIRGLQPEDAAIYYCQQHYIAPYTFGAGTRLEIK
notes: also called Fab 4G2
binds: all assays above

Source: publication PMC7755396 (eLife, 2020)
